Assay results as given in patent publication US20250073303A1, “TDP-43 Interference Peptides, Methods, and Uses Thereof” (The University of British Columbia, priority 2022, published 2025).

What was measured:
TDP-43 [1] = target: T1, TDP-43 (Mus musculus, UniProt Q921F2); assay: Sodium arsenite induced TDP-43 and phosphoTDP43 aggregates in HL-1 cells; type: cell-based; design: endogenous in cells; host or cells: HL-1 cells (cardiomyocytes); conditions: 0.05 mM sodium arsenite 16 hours
Procedure: FIG. 12. Example peptide D reduces TDP-43 and phosphoTDP43 aggregates in HL-1 cells following sodium arsenite treatment. Western blot analysis of protein expression (TDP-43, phosphoTDP-43, PARP and actin) in either soluble or insoluble fractions of HL-1 cells with 16 h treatment of sodium arsenite (0.05 mM).
In order to evaluate the function of example peptide D on alleviation of TDP-43 proteinopathies in cardiomyocytes, 0.05 mM of sodium arsenite was employed to treat HL-1 cells for 16 hours to induce TDP-43 and phosphoTDP43 aggregates. […] 20 μM of peptide D treatment in HL-1 cells under the same treatment conditions reduced insoluble aggregates of TDP-43 and phosphoTDP-43.

TDP-43 [2] = target: T1, TDP-43; assay: LPS (5 mg/kg) plus sciatic nerve axotomy in mice: TDP-43 and phosphoTDP-43 aggregates; type: in vivo; design: from tissue; host or cells: ventral lumbosacral spinal cord of mice, axotomy side; conditions: LPS 5 mg/kg i.p. plus axotomy, day 3 post-surgery, 10 and 20 mg/kg once daily i.p.
Procedure: FIG. 13: Example peptide D dose dependently reduces TDP-43 and phosphoTDP-43 aggregates in lumbar spinal cord of mice with LPS plus sciatic nerve axotomy. Western blot analysis of TDP-43 and phosphoTDP-43 expression in the soluble and insoluble fraction of ipsilateral lumbar spinal cord tissue that was collected in mice three days post LPS (5 mg/kg) plus sciatic nerve axotomy procedure. Group 1: Non-surgical mice. Group 2: Control mice with LPS plus sciatic nerve axotomy. Group 3: 10 mg/kg of peptide D treatment (once daily, i.p.) in mice with LPS treatment plus sciatic nerve axotomy. Group 4: 20 mg/kg of peptide D treatment (once daily, i.p.) in mice with LPS treatment plus sciatic nerve axotomy.
This mouse model was further optimized by adding one dose of lipopolysaccharide (LPS) injection (5 mg/kg, i.p.) when performing surgery. LPS injection aggravated the observed TDP-43 proteinopathy as assessed at day 3 post-surgery.

SH-SY5Y cells = assay: Stress granule (TIA-1) numbers in SH-SY5Y cells with sodium arsenite; type: cell-based, human; conditions: 1 mM sodium arsenite 1 hour, TIA-1 staining, vs scramble
TDP-43 [3] = target: T1, TDP-43; assay: LPS (1 mg/kg daily, 7 days) plus sciatic nerve axotomy in mice: TDP-43 aggregation by western blotting; type: in vivo; design: from tissue; host or cells: ventral lumbosacral spinal cord of mice, axotomy side; conditions: LPS 1 mg/kg daily i.p. for 7 days plus axotomy; 20 mg/kg i.p.; vs control mice
Procedure: FIG. 17: Example peptide D reduces TDP-43 aggregates in lumbar spinal cord of mice with sciatic nerve axotomy and 7 days of LPS administration. Mice underwent sciatic nerve axotomy (day 0) and LPS (1 mg/kg, daily, i.p.) administration for 7 days (days 0-7). TDP-43 aggregation in lumbar spinal cord was evaluated by western blotting.
Since LPS causes systematic inflammation, microglia activation in ventral horn of spinal cord was first detected by staining with an Iba-1 antibody. […] In this setting, motor neuron loss in the lower limb motoneuron group in L5/6 of spinal cord was observed, as confirmed by staining with ChAT and NeuN antibodies. […] TDP-43 and phosphoTDP-43 insolubility in lumbar spinal cord was also confirmed by western blotting.

T1 sequence (Q921F2 whole entry): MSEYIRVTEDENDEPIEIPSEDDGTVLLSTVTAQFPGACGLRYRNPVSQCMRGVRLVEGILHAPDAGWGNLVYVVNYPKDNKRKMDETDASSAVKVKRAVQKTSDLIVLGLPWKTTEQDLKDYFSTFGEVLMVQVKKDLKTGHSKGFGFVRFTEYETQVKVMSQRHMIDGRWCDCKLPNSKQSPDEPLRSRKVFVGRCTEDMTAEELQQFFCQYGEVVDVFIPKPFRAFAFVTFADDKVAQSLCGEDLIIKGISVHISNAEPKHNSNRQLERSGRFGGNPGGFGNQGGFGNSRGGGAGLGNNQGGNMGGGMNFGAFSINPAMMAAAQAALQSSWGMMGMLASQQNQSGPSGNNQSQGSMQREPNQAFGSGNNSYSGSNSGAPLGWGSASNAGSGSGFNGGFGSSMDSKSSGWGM

## peptide D: candidate peptide from a CK-1δ binding region for TDP-43, truncated HIV-1 TAT domain added at the N-terminal (YGRKKRRQRRRGFSYDYVFDWNMLK)
TDP-43 [1]; 20 μM peptide
  insoluble aggregates of TDP-43 and phosphoTDP-43: reduced
TDP-43 [1]; treated vs untreated cells
  PARP cleavage product: reduced
TDP-43 [2]
  TDP-43 and phosphoTDP-43 aggregation: reduced TDP-43 and phosphoTDP-43 aggregation in a dose dependent manner
SH-SY5Y cells
  number of stress granules (SGs) induced by sodium arsenite: reduced
TDP-43 [3]
  TDP-43 aggregation in lumbar spinal cord: reduced
